Laboratory results published in US20230139700A1 (BIO THERA SOLUTIONS, published 2023).
Changes are numbered by the printed parent chain.

T1: human OX40 on cells (human, UniProt P43489 29-277)
T1 sequence (looked up): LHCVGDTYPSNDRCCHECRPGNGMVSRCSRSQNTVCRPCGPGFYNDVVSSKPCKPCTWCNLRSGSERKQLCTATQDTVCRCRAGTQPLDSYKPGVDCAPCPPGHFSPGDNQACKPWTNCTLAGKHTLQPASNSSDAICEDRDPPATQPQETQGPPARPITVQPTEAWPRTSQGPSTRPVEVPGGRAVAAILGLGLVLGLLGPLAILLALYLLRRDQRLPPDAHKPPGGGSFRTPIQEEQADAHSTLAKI

T2: hOX40-his (human, UniProt P43489 29-216)
T2 construct: range 1-216; Made in HEK293; The stated range starts at residue 1 (holds the signal peptide of the entry); no cleavage site stated; not shown: his tag
T2 sequence (looked up): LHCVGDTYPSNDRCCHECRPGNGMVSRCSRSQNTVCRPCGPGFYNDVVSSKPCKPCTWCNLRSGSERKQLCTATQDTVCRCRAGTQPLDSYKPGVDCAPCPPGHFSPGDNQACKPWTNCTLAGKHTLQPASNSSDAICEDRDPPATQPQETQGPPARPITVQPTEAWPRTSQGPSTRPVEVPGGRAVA

T3: hOX40-FC (human, UniProt P43489 29-216)
T3 construct: range 1-216; Made in HEK293; The stated range 1-216 starts at residue 1, so it holds the signal peptide of the entry; also called human OX40 extracellular region fused to human IgG1-Fc; not shown: human IgG1-Fc, UniProt P01857, residues 104 to 330
T3 sequence (looked up): T2 sequence (looked up)

B1: Antibody M (antibody, human IgG1, kappa, V domains shown)
VH: QVQLVESGGGVVQPGESLRLSCAASGFTFSSYGMHWVRQAPGKGLEWVAVIWEDGSNQYYADSVKGRFTISRDNSKNTLYLQMNSLRAEDTAVYYCAKDNQDTSPDVGIDYWGQGTLVTVSS
VL: DIQMTQSPSSLSASVGDRVTITCRASQNISPFLNWYQQKPGKAPKLLIYAAVGLQSGVPSRFSGSGSGTDFTLTISSLQPEDFATYYCQQYTDYPLTFGGGTKVEIKR
notes: also called antibody No. 12; anti-OX40 antibody (antibody M)
B2: 11D4 (antibody, V domains shown)
VH: EVQLVESGGGLVQPGGSLRLSCAASGFTFSSYSMNWVRQAPGKGLEWVSYISSSSSTIDYADSVKGRFTISRDNAKNSLYLQMNSLRDEDTAVYYCARESGWYLFDYWGQGTLVTVSS
VL: DIQMTQSPSSLSASVGDRVTITCRASQGISSWLAWYQQKPEKAPKSLIYAASSLQSGVPSRFSGSGSGTDFTLTISSLQPEDFATYYCQQYNSYPPTFGGGTKVEIKR
B3: Antibody-F23-4k (antibody, human IgG1, kappa, V domains shown)
VH: B1 VH with V5E, W52S, E53Y, T103S
VL: DIVMTQSPSSLSASVGDRVTITCRASQDILGYVNWYQQKPGKAPILLIYATSGLQGGVPSRFSGSGSGTDFTLTISSLQPEDFATYYCQQYNSYPLTFGGGTKVDIKR
notes: also called antibody No. 4
B4: WEST + VG (antibody, human IgG1, kappa, V domains shown)
VH: B1 VH with V5E
VL: B1 VL with R18T, T92N, D93S
B5: T + TD (antibody, human IgG1, kappa, V domains shown)
VH: B1 VH with V5E, W52S, E53Y
VL: B1 VL with R18T, V52S, G53S
B6: T + VGL + TD (antibody, human IgG1, kappa, V domains shown)
VH: B1 VH with V5E, W52S, E53Y
VL: B1 VL with R18T
B7: T + VG (antibody, human IgG1, kappa, V domains shown)
VH: B1 VH with V5E, W52S, E53Y
VL: B1 VL with R18T, T92N, D93S
B8: WEST + VL (antibody, human IgG1, kappa, V domains shown)
VH: B1 VH with V5E
VL: B1 VL with R18T, V52S, G53S, T92N, D93S
B9: VH + VGTD (antibody, human IgG1, kappa, V domains shown)
VH: B1 VH with V5E, W52S, E53Y, T103S
VL: B1 VL with R18T
B10: WEST + TD (antibody, human IgG1, kappa, V domains shown)
VH: B1 VH with V5E
VL: B1 VL with R18T, V52S, G53S
B11: Antibody-M5-5k (antibody, human IgG1, kappa, V domains shown)
VH: QVQLVESGGGLIQPGGSLRLSCTASGFTFSTYAMSWVRQAPGKGLEWVSAISGTGDWASYADSVKGRFTTSRDNSRNTLYLQMNNLRDEDTAIYYCAKSSSTVATDFDYGMDVWGQGTLVTVSS
VL: ETTLTQSPSTLSASVGDRVTITCRASEEIGSWLAWYQQTPGKAPKRLIYEASSLQSGVPSRFSGSGSGTDFTLTISSLQPEDFATYYCQQYGSYPPTFGQGTKVEIKR
notes: also called antibody No. 8
B12: Antibody-M5-7k (antibody, human IgG1, kappa, V domains shown)
VH: B11 VH
VL: DIVMTQSPSTLSASVGDRVTVTCRASEDIGRWLAWYQQKPGKAPKRLIYAASSLQSGVPSRFSGSGSGTEFTLTISSLQPEDFATYYCQQYYNYPPTFGQGTKVEIKR
notes: also called antibody No. 9
B13: Antibody-A6-1k (antibody, human IgG1, kappa, V domains shown)
VH: QVQLQRSGGGLVQPGGSLRLSCAASGFTFSSYGMTWVRQAPGKGLEWVSAISNSGGSTYYADSVKGRFTISRDNSKNTLYLQMNSLRAEDTAVYYCAKDGPYFDYWGQGTLVTVSS
VL: DIQMTQSPSTLSASVGDRVTITCRVSQGIGDDLGWYQQKPGKAPKLLIYKASNLESGVPSRFSGSGSGTDFSLTISSLQPEDFATYFCQQAHSFPPTFGGGTKLEIKR
notes: also called Antibody-A6-lk; antibody No. 7
B14: Antibody-A2 (antibody, human IgG1, kappa, V domains shown)
VH: QVQLVESGGGLIQPGGSLRLSCAASGFTVSSNYMSWVRQAPGEGLEWIATIYYGGSTYYNPSLKSRVTISADMSKNQFSLKLSSMTAADTAVYYCARVVVPGYFDLWGRGTLVTVSS
VL: SSELTQDPAVSVALGQTVSITCQGDSLRSYYASWYQQKPGQAPVPVIYGKNNRPSGIPDRFSGSSSGNTASLTITGAQAEDEADYYCHSRDSSGKYVFGVGTKLTVLR
notes: also called antibody No. 11
B15: Antibody-F15-1L (antibody, human IgG1, kappa, V domains shown)
VH: QVQLRESGGGLVQPGGSLRLSCAASGFTFSSYAMNWVRQAPGKGLEWVSAISGSGGNTYYADSVKGRLTISRDNSKNTLYLQMNSLRAEDTAVYYCAKDPLGSSWFEYFQHWGQGTLVTVSS
VL: QSALTQPASVSGSPGQSITISCTGTSSDVGGYNYVSWYQKHPGKAPKLMIYEVSNRPSGVSNRFSGSKSANTASLTISGLQAEDEADYFCSSYSSSSTLVVFGGGTKLTVLR
notes: also called Antibody-F15-IL; antibody No. 3
B16: Antibody-X35-6L (antibody, human IgG1, kappa, V domains shown)
VH: EVQLVESGGGLVQPGRSLRLSCAASGFTFDDYAMHWVRQAPGRGLEWVSGIGGSGGSTYYADSVKGRFTISRDNSKNTLYLQMNGLGAEDTAVYYCAKDRGYGDYYWYFDLWGRGTLVTVSS
VL: SSELTQPASVSGSPGQSITISCTGTSSDVGGYNYVSWYQQHPGKAPKLMIYDVSNRPSGVSNRFSGSKSGNTASLTISGLQAEDEADYYCSSYTTSSTLVFGGGTKVTVLR
notes: also called antibody No. 2
B17: Antibody-FE-16H (antibody, human IgG1, kappa, V domains shown)
VH: QVQLVESGGGLVQPGGSLRLSCAASGFTFSSYAMSWVRQAPGKGLEWVSAISGSGGSTYYADSVKGRFTISRDNSKNSLYLQMNSLRAEDTAVYYCARGDSSSWFIFQDWGQGTLVTVSS
VL: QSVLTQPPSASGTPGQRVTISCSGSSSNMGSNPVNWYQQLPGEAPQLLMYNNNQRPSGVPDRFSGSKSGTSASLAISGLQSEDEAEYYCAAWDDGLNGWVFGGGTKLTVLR
notes: also called antibody No. 10
B18: Antibody-F23-7k (antibody, human IgG1, kappa, V domains shown)
VH: B1 VH with V5E, W52S, E53Y, T103S
VL: B2 VL with G28S, W32Y, A34N, E41G, S46L, I48M, Q89L, Y91I, N92D, P96L
notes: also called antibody No. 5

Each binder was assayed against T1, human OX40 on cells (assay: cell-based or functional assay).

| NFκB reporter in Jurkat-hOX40-NFκB-2 cells with Raji cells, activation peak against 11D4 [fold] | Binder |
| --- | --- |
| ~2.5 | B1 |

What follows are binders tested against T1, human OX40 on cells (assay: flow cytometry on Jurkat-hOX40 cells, 3-fold dilutions from 50 nM, MFI).
Method: Antibody-F23-4k and antibody-F23-32k, as well as two control antibodies 11D4 and OX40mAb24 at different concentrations were used to incubate Jurkat-hOX40 cells.

| EC50 [nM] | Binder |
| --- | --- |
| 1.5 | B2 |
| 1.5 | B3 |

The binders below were run against T1, human OX40 on cells (assay: flow cytometry (MFI) on Jurkat cells overexpressing OX40, antibody titration).
Text: (§1) Table 10 illustrates the CDRs of eight full antibodies containing these amino acid mutations, and the rest of the sequences are the same as those of antibody-F23-32K. […] The sequences of the anti-OX40 antibody (antibody M) are shown in Table 12; wherein, the expression cells used for the antibodies above (including antibody M) are CHO-S cells, and the method for preparing the antibody M-KF is as follows: the antibody M was identical to the antibody M-KF in terms of amino acid sequence and was expressed by the CHO cell line in which the fut8 gene was knocked out (the content of fucose in antibody M-KF was about 0%).

| EC50 (read off the curve) [nM] | Binder |
| --- | --- |
| ~1 | B2 |
| ~1 | B1 |

What follows are binders tested against T1, human OX40 on cells (assay: flow cytometry (MFI) on Jurkat cells overexpressing OX40, antibody titration; the unit nM comes from the legend paragraph 95).
Text: as §1

| EC50 [nM] | Binder |
| --- | --- |
| 1.17 | B2 |
| 1.2 | B1 |

The binders below were run against T2, hOX40-his (assay: BIACORE, antibody on the probe, 20 nM OX40-his).
Text: as §1

| Kd [nM] | koff [s⁻¹] | kon [M⁻¹ s⁻¹] | fold higher affinity than 11D4 [fold] | fold higher affinity than OX40mAb24 [fold] | fold increase of affinity (against antibody-F23-32K) [fold] | Binder |
| --- | --- | --- | --- | --- | --- | --- |
| 1.31 | 0.000461 | 353000 | – | – | – | B2 |
| 0.16 | 9.77e-05 | 610000 | ~9 | ~21 | ~70 | B1 |
| 0.77 | 0.000348 | 452000 | – | – | – | B4 |
| 5.01 | 0.00139 | 278000 | – | – | – | B5 |
| 0.266 | 0.000119 | 448000 | – | – | – | B6 |
| 4.54 | 0.00133 | 292000 | – | – | – | B7 |
| 1.93 | 0.000714 | 371000 | – | – | – | B8 |
| 0.565 | 0.000243 | 431000 | – | – | – | B9 |
| 0.653 | 0.000321 | 491000 | – | – | – | B10 |

The binders below were run against T3, hOX40-FC (assay: BLI (ForteBio), biotinylated antibody on SA sensor, OX40-Fc 50 nM bivalent, 1:1 model).
Method: The ForteBio affinity assay was conducted according to the existing conventional method (Estep, P et al., MAbs, 2013, 5(2): 270-8). The brief process is as follows: the sensor was equilibrated offline in an assay buffer (such as PBS) for 20 min and then subjected to online test for 60 s to establish a signal baseline. The purified antibodies obtained as described above were each loaded online onto a corresponding sensor (ForteBio), and finally the ForteBio affinity assay was conducted. The biotinylated candidate antibodies were adsorbed with the SA sensor, and binding and dissociation of hOX40-FC were each detected for about 5 min. The results are shown in Table 4, and N.D indicates not detected in Table 4. Finally, kinetic analysis was performed for all by using a 1:1 binding model.

| Kd [nM] | Binder |
| --- | --- |
| 2 | B11 |
| 0.4 | B12 |
| 4 | B13 |
| 9 | B14 |
| 3 | B15 |
| < 0.1 | B16 |
| 3 | B17 |
| 2 | B18 |
| 0.6 | B3 |
